Experimental data reported in PMC12809495, “Potential 14-3-3 binding sites in sirtuins reveal extended phosphosite-recognition modes” (Acta Crystallographica Section F: Structural Biology …, 2026).
Where a SMILES comes first, the peptide text is derived from it. Where no end group is shown, it is not given here. [ ]: non-standard residue; d: D form. pT = C[C@@H](OP(=O)(O)O)[C@H](N)C(=O)O; pS = N[C@@H](COP(=O)(O)O)C(=O)O

Tests used:
14-3-3 isoform theta = biological target: T1, 14-3-3 isoform theta (Homo sapiens, UniProt P27348); assay: Label-free microscale thermophoresis (MST) binding, 14-3-3 theta; conditions: label-free MST, 0.6 µM 14-3-3 protein, 25 mM MES pH 6.5, 5 mM MgCl2, 5 mM CaCl2, 25°C; Kd from duplicate measurements; read-out: Affinity estimates by MicroScale Thermophoresis, 14-3-3 isoform theta (Kd)
T1 construct: His6; made in house; host or cells: Escherichia coli BL21 Rosetta (DE3)
T1 sequence (P27348 1-245): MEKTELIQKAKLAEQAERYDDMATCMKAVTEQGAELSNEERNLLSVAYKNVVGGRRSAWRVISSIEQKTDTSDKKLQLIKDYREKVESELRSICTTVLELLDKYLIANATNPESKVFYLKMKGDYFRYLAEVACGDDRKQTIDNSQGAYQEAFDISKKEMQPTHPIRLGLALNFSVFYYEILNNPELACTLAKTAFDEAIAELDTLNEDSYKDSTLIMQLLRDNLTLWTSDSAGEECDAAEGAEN
Experimental: (§1) The binding of phosphorylated sirtuin peptides (Fig. 1 ▸) was analyzed using the change in the intrinsic fluorescence signal of the 14-3-3 proteins measured with label-free microscale thermophoresis using a Nanotemper Monolith NT.LabelFree or NT.115. A typical binding experiment using 0.6 µM 14-3-3 protein was performed in a modified MST buffer consisting of 25 mM MES pH 6.5, 5 mM MgCl2, 5 mM CaCl2. The measurements were performed at 25°C using a LED power of 10–40%. All measurements were performed at least in duplicate, and the results shown are representative measurements individually fitted using GraFit 7 (Erathicus Software, Horley, United Kingdom).
(§2) Figure 1 Classification and analysis of sirtuin PSSM results for potential 14-3-3 phosphoserine binding sites. Peptides with a gray background were not analyzed experimentally. Score is the overall PSSM score for the phosphorylation site; rank is the order within the 17 proposed sirtuin binding sites. Conserved residues in the 14-3-3 motifs are marked in green. Residues with restricted (proline) or very flexible (glycine) protein backbone or with a very large side chain (tryptophan) are marked in red. Amino acids with the same or similar hydrophobicity/size are shown in magenta. Kd values from duplicate measurements are colored green for Kd < 100 µM. Fields marked in red indicate no binding or no successful experiment. TEXT PRINTED IN THE PICTURE: Sirt1 S26: Affinity estimates by MicroScale Thermophoresis [μM], 14-3-3 isoform sigma: none | Sirt1 S670: Affinity estimates by MicroScale Thermophoresis [μM], 14-3-3 isoform gamma: aggr.; Affinity estimates by MicroScale Thermophoresis [μM], 14-3-3 isoform epsilon: > 183; Affinity estimates by MicroScale Thermophoresis [μM], 14-3-3 isoform theta: 93; Affinity estimates by MicroScale Thermophoresis [μM], 14-3-3 isoform sigma: 5 | Sirt3 S103: Affinity estimates by MicroScale Thermophoresis [μM], 14-3-3 isoform gamma: aggr.; Affinity estimates by MicroScale Thermophoresis [μM], 14-3-3 isoform epsilon: > 267; Affinity estimates by MicroScale Thermophoresis [μM], 14-3-3 isoform theta: 52; Affinity estimates by MicroScale Thermophoresis [μM], 14-3-3 isoform sigma: 10 | Sirt3 S103wt: Affinity estimates by MicroScale Thermophoresis [μM], 14-3-3 isoform gamma: aggr.; Affinity estimates by MicroScale Thermophoresis [μM], 14-3-3 isoform theta: none; Affinity estimates by MicroScale Thermophoresis [μM], 14-3-3 isoform sigma: none | Sirt3 S105: Affinity estimates by MicroScale Thermophoresis [μM], 14-3-3 isoform gamma: aggr.; Affinity estimates by MicroScale Thermophoresis [μM], 14-3-3 isoform epsilon: > 215; Affinity estimates by MicroScale Thermophoresis [μM], 14-3-3 isoform theta: 60; Affinity estimates by MicroScale Thermophoresis [μM], 14-3-3 isoform sigma: none | Sirt5 S168: Affinity estimates by MicroScale Thermophoresis [μM], 14-3-3 isoform epsilon: aggr.; Affinity estimates by MicroScale Thermophoresis [μM], 14-3-3 isoform theta: aggr.; Affinity estimates by MicroScale Thermophoresis [μM], 14-3-3 isoform sigma: > 329 | Sirt6 T337: Affinity estimates by MicroScale Thermophoresis [μM], 14-3-3 isoform epsilon: > 420; Affinity estimates by MicroScale Thermophoresis [μM], 14-3-3 isoform sigma: 12 | Sirt6 S338: Affinity estimates by MicroScale Thermophoresis [μM], 14-3-3 isoform epsilon: 19; Affinity estimates by MicroScale Thermophoresis [μM], 14-3-3 isoform sigma: 24 | Sirt7 S136: Affinity estimates by MicroScale Thermophoresis [μM], 14-3-3 isoform epsilon: none; Affinity estimates by MicroScale Thermophoresis [μM], 14-3-3 isoform theta: 30; Affinity estimates by MicroScale Thermophoresis [μM], 14-3-3 isoform sigma: 49

14-3-3 isoform epsilon = biological target: T2, 14-3-3 isoform epsilon (Homo sapiens, UniProt P62258); assay: Label-free microscale thermophoresis (MST) binding, 14-3-3 epsilon; conditions: label-free MST, 0.6 µM 14-3-3 protein, 25 mM MES pH 6.5, 5 mM MgCl2, 5 mM CaCl2, 25°C; Kd from duplicate measurements
T2 construct: His6; made in house; host or cells: Escherichia coli BL21 Rosetta (DE3)
T2 sequence (P62258 1-255): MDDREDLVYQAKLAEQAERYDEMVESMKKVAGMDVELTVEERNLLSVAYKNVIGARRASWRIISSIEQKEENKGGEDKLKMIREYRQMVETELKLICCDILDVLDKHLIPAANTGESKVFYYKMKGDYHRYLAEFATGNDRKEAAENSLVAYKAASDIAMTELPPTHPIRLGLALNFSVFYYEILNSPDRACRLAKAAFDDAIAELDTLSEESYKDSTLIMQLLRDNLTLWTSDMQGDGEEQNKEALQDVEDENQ
Experimental: as §1, §2

14-3-3 theta = biological target: T3, 14-3-3 theta (Homo sapiens); assay: MST
T3 chain: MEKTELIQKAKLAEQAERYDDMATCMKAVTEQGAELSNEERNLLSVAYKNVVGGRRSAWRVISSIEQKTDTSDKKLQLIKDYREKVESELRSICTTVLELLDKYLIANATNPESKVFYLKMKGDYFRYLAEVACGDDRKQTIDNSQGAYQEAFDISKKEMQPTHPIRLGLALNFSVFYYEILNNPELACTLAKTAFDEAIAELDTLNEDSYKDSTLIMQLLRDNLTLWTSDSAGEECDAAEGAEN

[1] = biological target: T4, 14-3-3σ-ΔC (C-terminally truncated human 14-3-3σ) (human, UniProt P31947 1-231); assay: MST
T4 chain: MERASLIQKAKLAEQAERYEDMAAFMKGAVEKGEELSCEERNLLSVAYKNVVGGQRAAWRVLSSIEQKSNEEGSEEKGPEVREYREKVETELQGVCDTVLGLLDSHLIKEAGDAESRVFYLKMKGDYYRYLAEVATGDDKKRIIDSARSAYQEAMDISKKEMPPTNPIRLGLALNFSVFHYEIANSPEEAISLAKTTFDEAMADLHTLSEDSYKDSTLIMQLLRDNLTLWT

14-3-3 epsilon = biological target: T5, 14-3-3 epsilon (Homo sapiens); assay: MST
T5 chain: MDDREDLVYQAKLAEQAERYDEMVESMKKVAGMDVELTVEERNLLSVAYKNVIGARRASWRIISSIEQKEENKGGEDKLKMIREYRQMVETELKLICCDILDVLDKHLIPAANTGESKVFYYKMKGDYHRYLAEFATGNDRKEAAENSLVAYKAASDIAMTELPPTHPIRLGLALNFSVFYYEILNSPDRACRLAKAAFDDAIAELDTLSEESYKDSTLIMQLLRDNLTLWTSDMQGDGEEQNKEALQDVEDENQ

## CC(C)C[C@H](NC(=O)[C@H](CC(=O)O)NC(=O)[C@H](C)NC(=O)[C@H](C)NC(=O)[C@H](COP(=O)(O)O)NC(=O)[C@@H](NC(=O)[C@H](CO)NC(=O)[C@H](CCCNC(=N)N)NC(=O)CNC(=O)[C@@H](N)CCCCN)C(C)C)C(=O)N[C@@H](CO)C(=O)O [Sirt7 S136] (H-KGRSV[pS]AADLS-OH)
14-3-3 isoform theta
  Kd: 30 µM
14-3-3 isoform epsilon
  Affinity estimates by MicroScale Thermophoresis, 14-3-3 isoform epsilon (Kd): none

## KGRSV[pS]AADLS [Sirt7 pS136, listing 1 of 2 here]
14-3-3 theta
  Kd: 30 µM

## KGRSV[pS]AADLS [Sirt7 pS136, listing 2 of 2 here]
[1]
  Kd: 49 µM

## RERPT[pS]PAPHR [Sirt6^pS338 phospho-endecamer peptide]
[1]
  Kd: 24 µM
14-3-3 epsilon
  Kd: 19 µM

## KRERP[pT]SPAPH [Sirt6^pT336 phospho-endecamer peptide]
[1]
  Kd: 12 µM
14-3-3 epsilon
  Kd: > 420 µM

## KTRCT[pS]CGVVA (cysteine pairing not given here) [Sirt5 pS168]
[1]
  Kd: > 329 µM

## RSISF[pS]VGASS (also: phosphoserine at 105 (place in chain not given here)) [Sirt3^pS105 phospho-endecamer peptide]
14-3-3 theta
  Kd: 60 µM
14-3-3 epsilon
  Kd: > 215 µM
